# From US20180346565A1 (AbbVie / Abbott, published 2018)
# T1: DLL3 purified protein (human, UniProt Q9NYJ7 27-492, limits assumed)
# T1 construct: also called purified DLL3; immobilized human DLL3
# T1 sequence (looked up): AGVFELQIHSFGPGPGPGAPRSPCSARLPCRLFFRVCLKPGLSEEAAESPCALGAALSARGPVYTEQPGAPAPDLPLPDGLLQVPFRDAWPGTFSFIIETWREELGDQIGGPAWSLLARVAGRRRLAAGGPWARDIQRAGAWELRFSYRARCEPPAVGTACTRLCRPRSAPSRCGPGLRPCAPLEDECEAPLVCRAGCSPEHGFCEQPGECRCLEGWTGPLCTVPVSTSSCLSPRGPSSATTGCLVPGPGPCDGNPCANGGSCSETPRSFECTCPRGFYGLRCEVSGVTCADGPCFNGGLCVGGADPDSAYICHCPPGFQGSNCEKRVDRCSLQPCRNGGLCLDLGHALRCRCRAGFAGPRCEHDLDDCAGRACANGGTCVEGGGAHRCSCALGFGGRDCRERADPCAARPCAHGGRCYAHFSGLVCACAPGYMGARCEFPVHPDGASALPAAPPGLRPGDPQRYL
# B1: hSC16.56 (antibody, human IgG1, kappa, V domains shown)
# VH: QVQLVQSGAEVKKPGASVKVSCKASGYTFTNYGMNWVRQAPGQGLEWMGWINTYTGEPTYADDFKGRVTMTTDTSTSTAYMELRSLRSDDTAVYYCARIGDSSPSDYWGQGTLVTVSS
# VL: EIVMTQSPATLSVSPGERATLSCKASQSVSNDVVWYQQKPGQAPRLLIYYASNRYTGIPARFSGSGSGTEFTLTISSLQSEDFAVYYCQQDYTSPWTFGQGTKLEIKR
# notes: Native human IgG1/kappa; also called humanized SC16.56; humanized anti-DLL3 antibody hSC16.56
# Target: T1, DLL3 purified protein
# Experiment: ELISA, plate coated with 1 ug/ml purified DLL3, serially diluted antibody, detection with HRP-conjugated anti-human IgG1 reporter mAb, TMB, OD450
# Text: Site-specific anti-DLL3 antibodies fabricated as set forth in the previous Examples were screened by an ELISA assay to determine whether they bound to DLL3 purified protein. The parental native antibody was used as a control and run alongside the site-specific anti-DLL3 antibody. Binding of the antibodies to DLL3 was detected with a monoclonal antibody (mAb) reporter antibody conjugated to horseradish peroxidase (HRP), (Southern Biotech, Cat. No. SB9052-05), which binds to an epitope present on human IgG1 molecules. HRP reacts with its substrate tetramethyl benzidine (TMB). The amount of […] TMB is directly proportional to the amount of test antibody bound to DLL3.
# ELISA plates were coated with 1 μg/ml purified DLL3 in PBS and incubated overnight at 4° C. Excess protein was removed by washing and the wells were blocked with 2% (w/v) BSA in PBS with 0.05% tween 20 (PBST), 200 μL/well for 1 hour at room temperature. After washing, 100 μL/well serially diluted antibody or ADC were added in PBST for 1 hour at room temperature. The plates were washed again and 0.5 ug/ml of 100 μL/well of the appropriate reporter antibody was added in PBST for 1 hour at room temperature. […] The samples were then analyzed by spectrophotometer at OD 450.
binder,measurement,value
B1,EC50 (read off the curve),~10 ng/mL
